Read-outs that look alike come from different tables or passages of the source.
Legend:
hCDH6aa54-615 APPavi [1] = molecular target: T1, hCDH6aa54-615 APPavi (human, UniProt P55285 54-615); assay: SPR binning
T1 sequence: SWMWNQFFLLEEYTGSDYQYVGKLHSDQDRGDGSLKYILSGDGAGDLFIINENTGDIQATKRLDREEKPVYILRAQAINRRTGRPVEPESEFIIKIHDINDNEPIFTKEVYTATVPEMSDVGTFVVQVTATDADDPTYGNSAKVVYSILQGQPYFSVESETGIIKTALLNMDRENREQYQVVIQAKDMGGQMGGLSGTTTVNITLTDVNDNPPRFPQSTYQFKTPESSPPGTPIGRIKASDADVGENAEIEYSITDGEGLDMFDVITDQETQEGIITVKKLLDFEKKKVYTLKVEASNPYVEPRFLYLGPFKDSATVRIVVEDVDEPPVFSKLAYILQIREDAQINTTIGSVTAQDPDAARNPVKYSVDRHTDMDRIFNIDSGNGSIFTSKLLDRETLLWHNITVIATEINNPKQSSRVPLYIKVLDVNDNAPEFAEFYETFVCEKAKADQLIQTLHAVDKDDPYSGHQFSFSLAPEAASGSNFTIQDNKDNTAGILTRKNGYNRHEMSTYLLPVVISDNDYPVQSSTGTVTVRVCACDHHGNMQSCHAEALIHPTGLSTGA

human CDH6 on cells = molecular target: T2, human CDH6 on cells (human, UniProt P55285 54-790); assay: FACS on CHO-TO-humanCDH6 cells plus tetracycline
T2 sequence: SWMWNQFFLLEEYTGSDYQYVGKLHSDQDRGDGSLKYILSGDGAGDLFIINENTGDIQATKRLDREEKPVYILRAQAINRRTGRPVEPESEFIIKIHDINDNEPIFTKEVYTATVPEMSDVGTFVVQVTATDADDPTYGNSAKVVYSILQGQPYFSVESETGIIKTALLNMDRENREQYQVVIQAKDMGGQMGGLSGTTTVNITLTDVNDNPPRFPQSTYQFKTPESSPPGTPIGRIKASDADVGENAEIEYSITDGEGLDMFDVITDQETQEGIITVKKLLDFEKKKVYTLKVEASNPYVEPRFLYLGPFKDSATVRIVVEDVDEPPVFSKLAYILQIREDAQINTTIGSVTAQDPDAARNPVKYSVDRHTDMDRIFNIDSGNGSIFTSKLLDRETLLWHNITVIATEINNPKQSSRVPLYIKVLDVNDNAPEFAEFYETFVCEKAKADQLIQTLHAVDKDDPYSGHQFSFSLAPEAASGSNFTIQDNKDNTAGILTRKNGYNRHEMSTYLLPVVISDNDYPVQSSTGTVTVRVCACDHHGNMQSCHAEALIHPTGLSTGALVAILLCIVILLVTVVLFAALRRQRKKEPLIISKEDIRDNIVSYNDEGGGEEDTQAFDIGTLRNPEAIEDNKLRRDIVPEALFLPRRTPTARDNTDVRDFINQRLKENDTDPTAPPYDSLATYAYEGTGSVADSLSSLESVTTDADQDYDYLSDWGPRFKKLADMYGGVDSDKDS

hCDH6aa54-615 APPavi [2] = molecular target: T1, hCDH6aa54-615 APPavi; assay: SPR binning; remark: listed apart in the source
mouse CDH6 on cells = molecular target: T3, mouse CDH6 on cells (mouse, UniProt P97326 54-790); assay: FACS on CHO-mouseCDH6 cells
T3 sequence (looked up): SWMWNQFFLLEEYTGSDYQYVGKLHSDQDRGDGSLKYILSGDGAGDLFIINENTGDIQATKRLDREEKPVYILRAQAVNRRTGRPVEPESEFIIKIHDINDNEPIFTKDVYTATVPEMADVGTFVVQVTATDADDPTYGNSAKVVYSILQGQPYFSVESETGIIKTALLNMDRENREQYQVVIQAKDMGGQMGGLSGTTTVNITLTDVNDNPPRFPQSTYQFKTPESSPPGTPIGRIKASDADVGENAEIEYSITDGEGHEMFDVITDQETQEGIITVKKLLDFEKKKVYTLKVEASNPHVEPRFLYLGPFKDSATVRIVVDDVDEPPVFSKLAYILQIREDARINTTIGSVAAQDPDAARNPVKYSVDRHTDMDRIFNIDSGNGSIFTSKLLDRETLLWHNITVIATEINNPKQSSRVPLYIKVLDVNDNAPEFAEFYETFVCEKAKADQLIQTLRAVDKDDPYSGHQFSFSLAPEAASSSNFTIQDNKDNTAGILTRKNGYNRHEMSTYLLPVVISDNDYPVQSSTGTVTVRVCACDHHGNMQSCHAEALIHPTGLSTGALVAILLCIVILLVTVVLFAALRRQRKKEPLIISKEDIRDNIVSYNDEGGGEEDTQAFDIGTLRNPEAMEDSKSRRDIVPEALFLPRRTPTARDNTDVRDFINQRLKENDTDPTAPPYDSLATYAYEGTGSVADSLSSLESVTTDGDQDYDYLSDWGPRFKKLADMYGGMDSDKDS

hCDH6aa54-615 APPavi [3] = molecular target: T1, hCDH6aa54-615 APPavi; assay: SPR binning; remark: listed apart in the source

B1: NOV0712 (antibody, human IgG1, kappa, V domains shown)
VH: QVQLLESGGGLVQPGGSLRLSCAASGFTFSSHGMHWVRQAPGKGLEWVSVISGSGSNTGYADSVKGRFTISRDNSKNTLYLQMNSLRAEDTAVYYCARQWGSYAFDSWGQGTLVTVSS
VL: DIQMTQSPSSLSASVGDRVTITCRASQSISSYLNWYQQKPGKAPKLLIYAVSTLQSGVPSRFSGSGSGTDFTLTISSLQPEDFATYYCQQSGTFPPTTFGQGTKVEIKR
response of secondary antibody on primary antibody-CDH6 complex (hCDH6aa54-615 APPavi [1]): 9.51
EC50 (read off the curve) (human CDH6 on cells): ~0.9 nM
response of secondary antibody on primary antibody-CDH6 complex (hCDH6aa54-615 APPavi [2]): 24.7
EC50 (read off the curve) (mouse CDH6 on cells): ~1 nM
response of secondary antibody on primary antibody-CDH6 complex (hCDH6aa54-615 APPavi [3]): 6

From patent US20170224836A1 (Novartis, published 2017)
